From the NTF2 design screens of Basanta et al. (2020)

Test: protease stability score; higher = more stable; yeast display proteolysis, trypsin and chymotrypsin;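 note: log10 excess protease needed over predicted unfolded state with 0 meaning unfolded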

| Sequence | protease stability score |
| --- | --- |
| DEEAAKRAEEYLKALRSGNPDDLKKQIDPNASYQIGDKRVHGREQQATLAHNLQHNMRMEWELKDYRVQGNSVTLEIDVVIEHNGRPEKFKADVRVTFHNGKIQEMTVREDK | 0.051 |
| DNSVKKIVEEFWKAVKHGDPDKLRELADPNAKFDVGDKVLHGRDRAAKFLHDQHNNARFDITSLRIRVTNGRADIDVKLHVEHNGEPKTSSAKVIVRVRNGRMTELKIRERS | 0.637 |
| DDEQRKDLAHDFLHAWKKGDEKLFDNLVDENVSAQYGDKTYHGRESISTFVRNYKKRADHFRVHDMQLSNGSVRMDVEAEVNGVDVRVTFHVFFHNGRVKSLQQDFTDEDVKRRHES | 0.604 |
| DKTHAETVRKLVERGNWEELARMADKDAHVNYGNKSVHGRERVESLLKRFSSRVDHVDLKDVDVQGDHVHMRYVAVFDGRRVDVSAVIFVDNGRIKSIHYRATDEEVKRRMDELLD | 1.33 |
| DTEKLDRFAHEFVKVLREGDEDRMRKLADEDASMNIGDKEYRGREEVAKALREYRERYDHLQVDSIDVQGEHISVKAQVRIDGRRRRARFEVRMHNGRIKEVNFDPDLLKEQHT | 0.206 |
| DEQEDRDMKKMYKNLQEGDDQRVADMADPNARWRVGDKTYHGKDSIRHWAKEVHDRMHFRIQSITVQNENGKVKVEIKWVTDENGKPVDQTVQVKAELHNGHIVDIDITTQS | 0.731 |
| DEENSEAMKRWFNAMETGDPDKVKEQLDENAKIEVGDKRIHGRDQAREEVRKMLERWEIRIKIDEIDVHGEKVVVKFRQHNDRNGEPDNQTVVFIAIFDNGKATRWLLTTDG | 0.289 |
| DNEDAKRVVKLAEHNDFKKWAENADKDVRMKVGDKTWHGRSQFSTAVERLQKNIDHVDLRSVKTHNGRVTIKEQQEVDGRKTDVRFRLQVHNGHIKRVEVQVTDEEDKKTMEKLLS | -0.23 |
| DEKHVKKVVDRVLDALEKKNKDELVKLVKPDVEFHVADTKFEGTDQLHKYYDKVFRKGVEFHVKEVKVEGNKAQVRYDVRAGGHQETVQFEVTVKDERVDRARAEMTEKYKKLVTKG | 0.086 |
| DEDHRERLANHAVEAFQDGDPQQMEELADEDARAEVGDKELTGRERISKMVKTIADNVDHIELKSYEKTGDTVRFHMVLDDNGKQKRLVLVVRIHNGRLKELRIQQS | 1.53 |
| DDQKVRVASELLKAIERGDPDQARELMDENAKMVIGETTFTGRDEAAKWISELKKHMRVQIQSVTFHDHNGQIVVNVTFEANINGDPFTMNLIVRVQVHNGRVQNVHYRLSEEQKRRLEQ | 0.969 |
| EEEKVKKVVKKLFEAVQKGDKKKLQELLHEDVEFQFGVKRVKGAEQYMRTVDELRQRGVQIEVKKYQVKDDKARMVTVVRYGDKTVTMTAEAEYEGGVLKRARVELTDEAKELVKKG | 0.41 |
| DEQDLNSVKENLKAIETNNPKRVKELLDKDARAQYGDKEVHGRDEIADQQRKEREDIDIRIDWKRMNIDNGRIHMEFEVQYNFNGKPLTNKVTMRNEAHNGSIKAMFWQLSEDQQRELDS | -0.374 |
| DEEKVVKKHVEDLRENWRTNNEDELMKLAPPDVRVEVGDTEIHGHDQLRHWAQEMSDRIDHLEVDFRSFELENGRAEVNAKVVNNHNGKEDTNSVNITAEVQGDRMKIESMKVK | -0.492 |
| EEEVEKAAERVAEVMKDNNPERVEELFDPNAHITVGDRTLHGREELSKHYKTMTDQWRIQIDRFSVEDHGSTVVIRIDFEADHDGRPEKREVIIKLSVSNGRVSWAIFKVDQ | 0.734 |
| DEEDLSDVLDKMDKAIVRGDEQKLQDLADPNVRAEIGDQKYHGRDAITMFFKVLTEQVDHMRIKTVELQGNKLYIVVSAHFNGQTYDVRFVADAHNGRITRIYVDPQAQKRMEE | 1.29 |
| DEENRKVFEEILEAKKRGDPKQLERNVDPNVKIYYGDKDFHGRSQLSKELEKVRRELHLHLDFKRIEYHGDSVDVELKVNQQHNGKPDESDRVFHARLHNGRLEHVDARDRK | -0.019 |
| DQEAHRVFNEFIKAITTGNPDRARQLADPNARFQVGDKRYHGMERYASTLKQQQNKMTQSLRVRDVDVKGDKIKVDAQSEMNHNGQPRRSQHNIDVNIQGDKIKRVRYTDDK | -0.454 |
| DEDEKVRQLVRDLIEALRTNDQKRWVELADKDARLKVGDKSYHGREELAKQMKKLREHVDHVTMRVKRVEVHNGRISVDATLTYDINGKKNHQTVKMQFRRHNGQIRLVQIEME | 0.174 |
| DEDAARKIRKLVEDWANGDPQSVADQMDENAEVHIGDQTLHGRDHVRKFVEKLSEQIRISVQSVTVRASGNHITAHVQMEVDVNGHPDTITFRIHADVDNGRIKSMEYRMDEQEQRKRTS | 0.346 |
| DETEVAHRFLNQERRNWKTGNRQSFENMFRDNVRAQYGDKTVTGREDMKRWLDRILKEVDHVRIEIKDLKREPGRVSLDVVVVFEHNGHKDKKRYVIDAVASGDKMIIDQVQDK | 0.165 |
| DEEEQHKVAKKLNEAFQQGDPDRLKQLVDKDARAEVGDTTYHGSQDIREAMQHIKDRVDKIEVKSFSVRNGKVTLSINMEVNGRKVILTVEARVDNGHVEYMRIKYTNEEDREVMDQ | 0.95 |
| DEQTHAEELARNFVTAIRTNNDQDIRDLFDKDARVEVGDKTIHGRENIARSIITIAKRVDSVDIRIQHVEVQGDKINIKMERRYDHNGQEHKKDLTMVARLTNGHMRIKVVKMD | 0.885 |
| DEEDANDMRHVWEVLDTGDEERFLQMVDPNVKVVIGDKEYHGRENLRKFLQDQKREMSERIKSIRVHDHNGRIKINAHATNQQNGQPHSFNIDAEAELHNGKITHLNVQTDG | 2.17 |
| DHEAREIVEEYLKAIERNNPKKAQELVDPNVHFHYGDKRLDGREDLNEKIHRETKHQRVDIKSVSIDVQGDKVDVKVDVVDVHNGQPERYTFEVTYTFKNGQIQNADQKESG | 1.02 |

| Sequence | protease stability score |
| --- | --- |
| DDQDLAKRLLDQLTKALQHGDERQLQRLMDKDVRVHIGDKNIHGREQAATFWVHLRKHVDRLSVRVKHVDIQGERVVFDMVFVFNHNGRQEHVRVVIVAKKDGDKIRIKRASQN | 2.16 |
| DEDKNKKFADKVVRALEQNNEEEMNELFPPDARVEVGDKQIHGREEIQKYMQKIRDQVDHVEVKSMEVDGDKITVHVTVHHNGTSRTVVFIFHVRNGRLTEMKVKTG | 0.04 |
| EEEKYQKLAKKVFEAVDKGNYEEVVKLGDENGKFQFGDNRVEGLEQYKRLMEKFEKKGVQVRVRKAQNKDDTATMVTTVKYGDVENTVTAELKYEGGKLKEARVENDEEVKEAVKKG | 0.031 |
| EDEEAEEAIRIWQRNDPDQLNRMVDKDVSIHYGDKSYHGRHEVKKIWENYVKQVDRISFRHITRTGEHVSFEVEAVVNGKHVEFTASMEMKNGRAKDITFKATNEEDDKELQKNLE | 0.28 |
| DKELWEWFRRWLENYRTGNHNNIREMADPNVRMVVGDKHISGREHYAEEVSRQVHKLRVSLDFKDYDLRPNRVNVDAVIRMTSDGEPDQSKWSQTLQFSNGRLHQANVTMNQ | 0.192 |
| DSKQRAKEFVKEFQRVLQKGDPDQAEKMADKDVRINVGDKTYHGREEMWKMAQEWQRKYDEMSITVSRIQTRPGRIVANAKLKLDNNGTTDDTHLVIVVREHNGHYRAVHIRLG | 0.992 |
| DETARHRLEEMWTNIQRNNPSEVAKLADKDVRVRVGDKEIHGREQLNHHIKRFNDEIRMNVDHISIKVDGNEADIHIRAEFEVNGTPFEMTIDVKISVHNGKIKEIDRQVSEEEKRRLKK | 0.806 |
| DEKAQDILKEIANAIRTNNPSQLKNLLDPNAKVKIGDKEFHGMDQLQEDVQRKKEKMRVDFDVRRVEVQGETVHARARVVIHHNGKPATMTYSMIVHIKNGRVRELQVNISETDKEKQKS | 1.62 |
| DDEEAKRVAEEVIKAMQKGDEEHFDRLVDPDVRLNVGDKVLHGRRDLRRWVKEVADKADHVQVDDVKVNNGTAKIRFRIDINGQTEEVIMHIHVTNGEVKSMRVQRT | 1.43 |
| DEEEQRKAAHQYRKGDPDEAHHMFDENATVEIGNFHVQGREQVREAFEHMKRRADHREVDDMKIQGDKVQVDFQIVVNGQRVKATLDAKVKNGRAQSVRVEFRDEEDRTRAERWFK | 0.042 |
| DEELQSDVEEFLRNQTTGDEDRLKELADENAKVHVGDKTLHGMDQIKRYERQEREEMRIDYKHWDIKVSGNQVTVHFDFVNRFNGKPQHVSVILHVQFDNGKIKAADYRTDPREREKIRS | -0.463 |
| DNTIKRKFHDLIRAWQTNDENRYMQLFDPNVKIRVGNQQFHGREDWSKWFREQMTHLRNDFTVKSLEVDGDKVVADIVAVLSINGRPNKMRVDYRMTVHNGKIKSAEMRFSHEIETKIEQ | 1.46 |
| DRDKERKVIEKLMNALQNNDENQIRKLIDPNARLVYGDKELHGREEVVKFLVTLLNQVDRIEYKSYDFHNGHANIDFTLRFNGQNATFTMEIRVKNGRVDHITLDPQQINRMNS | 0.885 |
| DEHVLHELERAFRDNDFERLQEQFDENARVEIGDKTYHGKNQVQQAMNDFKTAYDHYQLKTFDIHGEKVFADVKATVNGHDVEFEWEMTASNGRIKKLHIQARDEEVKEQLKRALS | 0.109 |
| DETVLQVVHRFLKAVETGDPKEVRKNADPNAKAVVGDQTVSGRETLAHQIEREREEMSFEWEKVTNDVQGEHVDVDFTMRMTHNGRPDRSRVRIKYQVHNGKLTYVRVTDDK | -0.149 |
| DERDRHKQVEEMINAFDDGDEETIKELMDEDVRAQIGNKRVHGQENVSRILKEFRDRADHIQVDTYHVEGDRAQIHAKVEVNGRRIKVSIHVQLENGRFKSFVIEYTDSDKLREMQS | 0.909 |
| EDENMETMKDLLRAWQEGDEDRAQENADKDVTVEYGDRSFHGRSQLHRLVKERREKMRVQIKDVRFDISGDKIKIDLTYTKDHNGRPETRRVRIIARVNNGKVKFVRLDEHG | 0.652 |
| DEENMEVYQTQLKVEQRGNEEELVKLIDPNAEVRIGDKQVKGRENIAHTIKQETDKMERKIESLNLSAHNGEIHIKATVVQTHNGEPRTDSYVMRIHLHNGRLKQMDVHKSN | 0.541 |
| DEQKEMKRFANQFNSAIRHGDEKKMADLFDPNARMEVGDTSWNGRRNLEKEWKRRNETIDHARVHLQDVSVDGNSATVVFVLVENVNGEERNDVYVFVAVKHNGKIVIDHMTQK | 0.159 |
| DDKQLDERVKEIQEVIRDNDPDSMKHLMDPNARMFVGDKEFHGRDEIVRHLKDLWHRVDHFHIKDFRASGNRAVVIAVFHVNGVTAHFKIFVVFQNGRIKQLRIKWRNEDEERRVRS | 0.674 |
| DDDALRRAKEMDDQIKNGNEHEYQKMVDPNAREHIGDTTYSGRENLVKLVRDRRRHMREKVDITEMESSGDKLRIVYRAEQEHNGQPRKKRRRKVIRLSNGRVQEVKVVDDQ | 0.4 |
| DEEHVKRMATTFAKQMRHNNPDDIMKQMDKNVQLRYGDKEVEGDENVRRRLKTLHDQVDHVEVKDYTAHGNSIRIVVRLEVNGKTANFVLIVIVENGRVLKANIDPKALDSYEK | 0.253 |
| DEEEDQRVAVDALKVIWRGDSDEAQKLFDPNARFRVGDTVYHGRENVKTALRRFRERADHIRVDHIETQGEHAVAKATVHSNGRTRRLRVHATVHNGRAKEAEVRDS | 0.012 |
| DEELEKHADTLFEAWNHNDPKTVMKMFDPNAHVDVGDHRFRGREDLHDKMSEIQEHARLRVDVKDVKAQGEKATVRFSIEINYNGKPTQDDVVQDMEVRNGRIKRLSYRTDK | -0.13 |
| DEDQEDLIRRLIKALDTGDPEQARKNADKDARFNYGDQEIHGMQTFVDDLEKRKRQMHVRITRIDVRVHNGQAKQSVNEVTNHNGRPQSRVQDRRIQITNGRVKKMENDDDG | -0.316 |
